Measured values: US20130005646A1 (Novo Nordisk, published 2013)
Values belong to the binder of their own block, whether it stands above or below them. Starred links: 1 amine or outer side, 2 acyl side, 3 side chain; linkers in the order of their positions; H or OH if unused. Positions of bridges follow the written chain, without caps; N, C: chain ends. *: point of attachment. C20 diacid = O=C(O)CCCCCCCCCCCCCCCCCCC(=O)*; γGlu = O=C(O)[C@H](CCC(=O)[*:2])N[*:1]

How the values were obtained:
Experiment in all cases: cell-based or functional assay
[1] = target: T1, rat calcitonin (a) receptor (rat, UniProt P32214 25-516)
T1 sequence (looked up): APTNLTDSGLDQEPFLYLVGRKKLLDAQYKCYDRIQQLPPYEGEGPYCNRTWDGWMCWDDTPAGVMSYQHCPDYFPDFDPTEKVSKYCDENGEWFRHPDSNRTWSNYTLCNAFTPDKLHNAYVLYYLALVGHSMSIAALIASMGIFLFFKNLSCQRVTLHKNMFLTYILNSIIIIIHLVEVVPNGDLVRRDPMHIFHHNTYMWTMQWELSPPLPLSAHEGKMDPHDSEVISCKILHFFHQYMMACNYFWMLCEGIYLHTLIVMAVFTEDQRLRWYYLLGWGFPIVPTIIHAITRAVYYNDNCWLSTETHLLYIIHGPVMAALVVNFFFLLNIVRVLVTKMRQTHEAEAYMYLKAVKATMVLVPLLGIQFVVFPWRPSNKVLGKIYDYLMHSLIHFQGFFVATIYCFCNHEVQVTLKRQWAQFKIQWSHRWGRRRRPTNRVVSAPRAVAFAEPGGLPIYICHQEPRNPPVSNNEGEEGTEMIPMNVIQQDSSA

[2] = target: T2, rat amylin 3(a) receptor (rat calcitonin(a) receptor + rat RAMP3) (rat, UniProt P32214 25-516; Q9JJ73 23-147)
T2 sequence (looked up) 1: T1 sequence (looked up)
T2 sequence (looked up) 2: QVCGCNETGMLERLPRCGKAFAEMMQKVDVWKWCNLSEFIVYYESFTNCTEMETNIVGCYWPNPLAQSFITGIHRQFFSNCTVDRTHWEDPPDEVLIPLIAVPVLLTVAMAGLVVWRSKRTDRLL

[3] = target: T3, human amylin 3(a) receptor (human calcitonin receptor + RAMP-3) (human, UniProt P30988 25-474; O60896 24-148)
T3 sequence (looked up) 1: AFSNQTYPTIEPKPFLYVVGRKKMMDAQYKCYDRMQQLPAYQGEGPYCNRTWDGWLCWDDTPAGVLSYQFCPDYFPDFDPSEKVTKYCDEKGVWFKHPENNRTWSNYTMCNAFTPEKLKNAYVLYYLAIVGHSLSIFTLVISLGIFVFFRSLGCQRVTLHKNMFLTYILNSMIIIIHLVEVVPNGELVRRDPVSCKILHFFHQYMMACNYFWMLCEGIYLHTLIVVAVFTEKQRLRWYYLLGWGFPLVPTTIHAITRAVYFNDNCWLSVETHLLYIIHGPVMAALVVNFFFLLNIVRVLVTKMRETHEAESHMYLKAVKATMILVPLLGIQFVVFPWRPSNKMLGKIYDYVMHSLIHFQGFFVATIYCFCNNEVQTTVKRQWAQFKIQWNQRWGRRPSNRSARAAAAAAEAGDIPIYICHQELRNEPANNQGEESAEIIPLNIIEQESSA
T3 sequence (looked up) 2: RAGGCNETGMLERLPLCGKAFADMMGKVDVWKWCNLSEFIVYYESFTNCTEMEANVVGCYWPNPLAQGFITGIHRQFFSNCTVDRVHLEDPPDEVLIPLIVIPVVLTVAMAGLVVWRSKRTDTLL

[4] = target: T4, human calcitonin (a) receptor (human, UniProt P30988 25-474)
T4 sequence (looked up): T3 sequence (looked up) 1

B1: N-alpha-[(S)-4-Carboxy-4-(19-carboxynonadecanoylamino)butyryl]-[Glu1,Glu14,His17,Arg18,Pro37]-pramlintide (peptide)
peptide: {C20 diacid-γGlu}-ECNTATCATQRLAEFLHRSSNNFGPILPPTNVGSNTP-NH2
modifications: disulfide 2-7
SMILES: CC[C@H](C)[C@H](NC(=O)[C@@H]1CCCN1C(=O)CNC(=O)[C@H](Cc1ccccc1)NC(=O)[C@H](CC(N)=O)NC(=O)[C@H](CC(N)=O)NC(=O)[C@H](CO)NC(=O)[C@H](CO)NC(=O)[C@H](CCCNC(=N)N)NC(=O)[C@H](Cc1c[nH]cn1)NC(=O)[C@H](CC(C)C)NC(=O)[C@H](Cc1ccccc1)NC(=O)[C@H](CCC(=O)O)NC(=O)[C@H](C)NC(=O)[C@H](CC(C)C)NC(=O)[C@H](CCCNC(=N)N)NC(=O)[C@H](CCC(N)=O)NC(=O)[C@@H](NC(=O)[C@H](C)NC(=O)[C@@H]1CSSC[C@H](NC(=O)[C@H](CCC(=O)O)NC(=O)CC[C@H](NC(=O)CCCCCCCCCCCCCCCCCCC(=O)O)C(=O)O)C(=O)N[C@@H](CC(N)=O)C(=O)N[C@@H]([C@@H](C)O)C(=O)N[C@@H](C)C(=O)N[C@@H]([C@@H](C)O)C(=O)N1)[C@@H](C)O)C(=O)N[C@@H](CC(C)C)C(=O)N1CCC[C@H]1C(=O)N1CCC[C@H]1C(=O)N[C@H](C(=O)N[C@@H](CC(N)=O)C(=O)N[C@H](C(=O)NCC(=O)N[C@@H](CO)C(=O)N[C@@H](CC(N)=O)C(=O)N[C@H](C(=O)N1CCC[C@H]1C(N)=O)[C@@H](C)O)C(C)C)[C@@H](C)O
CTa receptor rat EC50 [1]: 806 pM | Amylin receptor rat EC50 [2]: 374 pM | Amylin receptor human EC50 [3]: 82.3 pM | CTa receptor human EC50 [4]: 86.4 pM

B4: N-alpha-[(S)-4-Carboxy-4-(19-carboxynonadecanoylamino)butyryl]-His-His-[His1,Glu14,Arg17]-pramlintide (peptide)
peptide: {C20 diacid-γGlu}-HHHCNTATCATQRLAEFLRHSSNNFGPILPPTNVGSNTY-NH2
modifications: disulfide 4-9
SMILES: CC[C@H](C)[C@H](NC(=O)[C@@H]1CCCN1C(=O)CNC(=O)[C@H](Cc1ccccc1)NC(=O)[C@H](CC(N)=O)NC(=O)[C@H](CC(N)=O)NC(=O)[C@H](CO)NC(=O)[C@H](CO)NC(=O)[C@H](Cc1c[nH]cn1)NC(=O)[C@H](CCCNC(=N)N)NC(=O)[C@H](CC(C)C)NC(=O)[C@H](Cc1ccccc1)NC(=O)[C@H](CCC(=O)O)NC(=O)[C@H](C)NC(=O)[C@H](CC(C)C)NC(=O)[C@H](CCCNC(=N)N)NC(=O)[C@H](CCC(N)=O)NC(=O)[C@@H](NC(=O)[C@H](C)NC(=O)[C@@H]1CSSC[C@H](NC(=O)[C@H](Cc2c[nH]cn2)NC(=O)[C@H](Cc2c[nH]cn2)NC(=O)[C@H](Cc2c[nH]cn2)NC(=O)CC[C@H](NC(=O)CCCCCCCCCCCCCCCCCCC(=O)O)C(=O)O)C(=O)N[C@@H](CC(N)=O)C(=O)N[C@@H]([C@@H](C)O)C(=O)N[C@@H](C)C(=O)N[C@@H]([C@@H](C)O)C(=O)N1)[C@@H](C)O)C(=O)N[C@@H](CC(C)C)C(=O)N1CCC[C@H]1C(=O)N1CCC[C@H]1C(=O)N[C@H](C(=O)N[C@@H](CC(N)=O)C(=O)N[C@H](C(=O)NCC(=O)N[C@@H](CO)C(=O)N[C@@H](CC(N)=O)C(=O)N[C@H](C(=O)N[C@@H](Cc1ccc(O)cc1)C(N)=O)[C@@H](C)O)C(C)C)[C@@H](C)O
CTa receptor rat EC50 [1]: 6760 pM | Amylin receptor rat EC50 [2]: 82 pM | Amylin receptor human EC50 [3]: 77.5 pM | CTa receptor human EC50 [4]: 408 pM

B5: N-alpha-[(S)-4-Carboxy-4-(19-carboxynonadecanoylamino)butyryl]-His-His-[His1,Glu14,His17]-pramlintide (peptide)
peptide: {C20 diacid-γGlu}-HHHCNTATCATQRLAEFLHHSSNNFGPILPPTNVGSNTY-NH2
modifications: disulfide 4-9
SMILES: CC[C@H](C)[C@H](NC(=O)[C@@H]1CCCN1C(=O)CNC(=O)[C@H](Cc1ccccc1)NC(=O)[C@H](CC(N)=O)NC(=O)[C@H](CC(N)=O)NC(=O)[C@H](CO)NC(=O)[C@H](CO)NC(=O)[C@H](Cc1c[nH]cn1)NC(=O)[C@H](Cc1c[nH]cn1)NC(=O)[C@H](CC(C)C)NC(=O)[C@H](Cc1ccccc1)NC(=O)[C@H](CCC(=O)O)NC(=O)[C@H](C)NC(=O)[C@H](CC(C)C)NC(=O)[C@H](CCCNC(=N)N)NC(=O)[C@H](CCC(N)=O)NC(=O)[C@@H](NC(=O)[C@H](C)NC(=O)[C@@H]1CSSC[C@H](NC(=O)[C@H](Cc2c[nH]cn2)NC(=O)[C@H](Cc2c[nH]cn2)NC(=O)[C@H](Cc2c[nH]cn2)NC(=O)CC[C@H](NC(=O)CCCCCCCCCCCCCCCCCCC(=O)O)C(=O)O)C(=O)N[C@@H](CC(N)=O)C(=O)N[C@@H]([C@@H](C)O)C(=O)N[C@@H](C)C(=O)N[C@@H]([C@@H](C)O)C(=O)N1)[C@@H](C)O)C(=O)N[C@@H](CC(C)C)C(=O)N1CCC[C@H]1C(=O)N1CCC[C@H]1C(=O)N[C@H](C(=O)N[C@@H](CC(N)=O)C(=O)N[C@H](C(=O)NCC(=O)N[C@@H](CO)C(=O)N[C@@H](CC(N)=O)C(=O)N[C@H](C(=O)N[C@@H](Cc1ccc(O)cc1)C(N)=O)[C@@H](C)O)C(C)C)[C@@H](C)O
CTa receptor rat EC50 [1]: 962 pM | Amylin receptor rat EC50 [2]: 88.5 pM | Amylin receptor human EC50 [3]: 85.3 pM | CTa receptor human EC50 [4]: 208 pM

Next, values leading:

CTa receptor rat EC50 [1]: 1730 pM | Amylin receptor rat EC50 [2]: 330 pM | Amylin receptor human EC50 [3]: 212 pM | CTa receptor human EC50 [4]: 208 pM
B2: N-alpha-[(S)-4-Carboxy-4-(19-carboxynonadecanoylamino)butyryl]-[His1,Glu14,His17,Arg18,Ser21,Ser22,Asp31,Asp35]-pramlintide (peptide)
peptide: {C20 diacid-γGlu}-HCNTATCATQRLAEFLHRSSSSFGPILPPTDVGSDTY-NH2
modifications: disulfide 2-7
SMILES: CC[C@H](C)[C@H](NC(=O)[C@@H]1CCCN1C(=O)CNC(=O)[C@H](Cc1ccccc1)NC(=O)[C@H](CO)NC(=O)[C@H](CO)NC(=O)[C@H](CO)NC(=O)[C@H](CO)NC(=O)[C@H](CCCNC(=N)N)NC(=O)[C@H](Cc1c[nH]cn1)NC(=O)[C@H](CC(C)C)NC(=O)[C@H](Cc1ccccc1)NC(=O)[C@H](CCC(=O)O)NC(=O)[C@H](C)NC(=O)[C@H](CC(C)C)NC(=O)[C@H](CCCNC(=N)N)NC(=O)[C@H](CCC(N)=O)NC(=O)[C@@H](NC(=O)[C@H](C)NC(=O)[C@@H]1CSSC[C@H](NC(=O)[C@H](Cc2c[nH]cn2)NC(=O)CC[C@H](NC(=O)CCCCCCCCCCCCCCCCCCC(=O)O)C(=O)O)C(=O)N[C@@H](CC(N)=O)C(=O)N[C@@H]([C@@H](C)O)C(=O)N[C@@H](C)C(=O)N[C@@H]([C@@H](C)O)C(=O)N1)[C@@H](C)O)C(=O)N[C@@H](CC(C)C)C(=O)N1CCC[C@H]1C(=O)N1CCC[C@H]1C(=O)N[C@H](C(=O)N[C@@H](CC(=O)O)C(=O)N[C@H](C(=O)NCC(=O)N[C@@H](CO)C(=O)N[C@@H](CC(=O)O)C(=O)N[C@H](C(=O)N[C@@H](Cc1ccc(O)cc1)C(N)=O)[C@@H](C)O)C(C)C)[C@@H](C)O

CTa receptor rat EC50 [1]: 379 pM | Amylin receptor rat EC50 [2]: 64.5 pM | Amylin receptor human EC50 [3]: 93.4 pM | CTa receptor human EC50 [4]: 150 pM
B3: N-alpha-[(S)-4-Carboxy-4-(19-carboxynonadecanoylamino)butyryl]-[His1,Glu14,His17,Arg18]-pramlintide (peptide)
peptide: {C20 diacid-γGlu}-HCNTATCATQRLAEFLHRSSNNFGPILPPTNVGSNTY-NH2
modifications: disulfide 2-7
SMILES: CC[C@H](C)[C@H](NC(=O)[C@@H]1CCCN1C(=O)CNC(=O)[C@H](Cc1ccccc1)NC(=O)[C@H](CC(N)=O)NC(=O)[C@H](CC(N)=O)NC(=O)[C@H](CO)NC(=O)[C@H](CO)NC(=O)[C@H](CCCNC(=N)N)NC(=O)[C@H](Cc1c[nH]cn1)NC(=O)[C@H](CC(C)C)NC(=O)[C@H](Cc1ccccc1)NC(=O)[C@H](CCC(=O)O)NC(=O)[C@H](C)NC(=O)[C@H](CC(C)C)NC(=O)[C@H](CCCNC(=N)N)NC(=O)[C@H](CCC(N)=O)NC(=O)[C@@H](NC(=O)[C@H](C)NC(=O)[C@@H]1CSSC[C@H](NC(=O)[C@H](Cc2c[nH]cn2)NC(=O)CC[C@H](NC(=O)CCCCCCCCCCCCCCCCCCC(=O)O)C(=O)O)C(=O)N[C@@H](CC(N)=O)C(=O)N[C@@H]([C@@H](C)O)C(=O)N[C@@H](C)C(=O)N[C@@H]([C@@H](C)O)C(=O)N1)[C@@H](C)O)C(=O)N[C@@H](CC(C)C)C(=O)N1CCC[C@H]1C(=O)N1CCC[C@H]1C(=O)N[C@H](C(=O)N[C@@H](CC(N)=O)C(=O)N[C@H](C(=O)NCC(=O)N[C@@H](CO)C(=O)N[C@@H](CC(N)=O)C(=O)N[C@H](C(=O)N[C@@H](Cc1ccc(O)cc1)C(N)=O)[C@@H](C)O)C(C)C)[C@@H](C)O
